The values that follow come from article PMC7566517, “Long-acting antibody ligand mimetics for HER4-selective agonism” (Scientific Reports, 2020).

First the molecules themselves.
B1: NRG1-MFc fusion protein (NRG1 EGF domain fused with monomeric Fc) (Fc fusion, human)
chain: GTSHLVKCAEKEKTFCVNGGECFMVKDLSNPSRYLCKCPNEFTGDRCQNYVMASF
notes: neuregulin-1 beta (NRG1b) EGF domain, about 60 amino acids; numbers count on: the EGF domain (His2, Cys45); also called neuregulin-MFc; parental clone; source: HEK293FT, transient transfection, purified (protein A); not shown: monomeric Fc (MFc C4)
B2: ALM3 (antibody ligand mimetic 3) (antibody)
chain 1: not shown
chain 2: EIVLTQSPGTLSLSPGERATFSCRSSHSIRSRRVAWYQHKPGQAPRLVIHGVSNRASGISDRFSGSGSGTDFTLTITRVEPEDFALYYCQVYGASSYTFGQGTKLERKRTVAAPSVFIFPPSDEQLKSGTASVVCLLNNFYPREAKVQWKVDNALQSGNSQESVTEQDSKDSTYSLSSTLTLSKADYEKHKVYACEVTHQGLRSPVTKSFNRGEC
B3: ALM4 (antibody ligand mimetic 4) (antibody)
chain 1: not shown
chain 2: EIVLTQSPGTLSLSPGERATFSCRSSHSIRSRRVAWYQHKPGQAPRLVIHGVSNRASGISDRFSGSGSGTDFTLTITRVEPEDFALYYCQVYGASSYTFGQGTKLERKRTVAAPSVFIFPPSDEQLKSGTASVVCLLNNFYPREAKVQWKVDNALQSGNSQESVTEQDSKDSTYSLSSTLTLSKADYEKHKVYACEVTHQGLRSPVTKSFNRGEC
B4: NRG1 fused with human serum albumin (ligand, UniProt Q02297-6 177-236, looked up)
chain: SHLVKCAEKEKTFCVNGGECFMVKDLSNPSRYLCKCPNEFTGDRCQNYVMASFYKHLGIE
notes: neuregulin 1 (NRG1) fused with HSA, control protein; Control protein; also called NRG1-HSA

In this assay the target is T1, recombinant human HER4 ECD, biotinylated (human, UniProt Q15303 26-651, biotinylated (site not stated)).
T1 construct: human epidermal growth factor receptor family member 4 (HER4, ErbB4), extracellular domain; Captured on streptavidin biosensors by its biotin; also called ErbB4; source: in-house purified recombinant
T1 sequence (looked up): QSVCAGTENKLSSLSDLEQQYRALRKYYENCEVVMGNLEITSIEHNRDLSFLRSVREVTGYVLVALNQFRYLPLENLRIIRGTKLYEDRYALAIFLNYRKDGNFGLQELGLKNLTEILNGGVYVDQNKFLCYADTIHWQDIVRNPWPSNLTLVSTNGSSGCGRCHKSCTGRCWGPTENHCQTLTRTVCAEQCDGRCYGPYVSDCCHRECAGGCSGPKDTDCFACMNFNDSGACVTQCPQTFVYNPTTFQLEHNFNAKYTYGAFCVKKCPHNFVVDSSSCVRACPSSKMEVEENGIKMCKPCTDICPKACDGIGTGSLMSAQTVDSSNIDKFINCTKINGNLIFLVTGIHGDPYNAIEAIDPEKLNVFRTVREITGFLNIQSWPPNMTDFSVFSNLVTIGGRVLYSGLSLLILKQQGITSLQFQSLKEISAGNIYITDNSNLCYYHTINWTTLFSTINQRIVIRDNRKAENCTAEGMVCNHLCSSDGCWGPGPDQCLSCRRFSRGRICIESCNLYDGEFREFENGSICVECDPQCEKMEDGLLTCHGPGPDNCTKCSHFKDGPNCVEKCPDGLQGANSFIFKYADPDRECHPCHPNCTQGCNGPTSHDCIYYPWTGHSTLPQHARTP
Briefly: BLI; Octet 384; biotinylated HER4 or HER3 at 1 μg/mL captured on streptavidin biosensors; PBS pH 7.4, 3 mg/mL BSA, 0.05% Tween 20; serial dilutions of the variants; steady-state fit. The settings on record: both partners purified.
A word on the Kd: it is the constant that tells how readily two partners part at equilibrium. As for B1, the equilibrium dissociation constant (Kd) worked out at 640 nM.

Consider B2, for which the equilibrium dissociation constant (Kd) was > 10000 nM.

Take B3: the Kd is 5600 nM.

In the case of B4, the Kd stood at 460 nM.
